Reference: article PMC10808355
Blank lines part the entries; values can stand above or below the substance they belong to.

Assays:
[1] = molecular target: Chaetomium thermophilum 80S ribosome (Ct80S) (C. thermophilum (endogenous in C. thermophilum)); test: cryo-EM structure; 400 nM C. thermophilum 80S ribosomes mixed with CtMAP2∆N (66 µM final), 30 min at RT, then vitrified; particles separated by translocation state (rotated, non-rotated)
[2] = molecular target: Human 80S ribosome, non-translating (Hs80S) (human (endogenous in HeLa)) (UniProt P62750); test: cryo-EM structure; 200 nM non-translating H. sapiens 80S ribosomes mixed with HsMAP2 (59 µM final), 30 min at RT, then vitrified
[3] = molecular target: Chaetomium thermophilum 80S ribosome (Ct80S) (C. thermophilum (endogenous in C. thermophilum)); test: cryo-EM structure; 400 nM C. thermophilum 80S ribosomes (with random nascent chains) mixed with full-length CtMAP2 (66 µM final), 30 min at RT, then vitrified

fold of the percentage in the A-site, against the full-length CtMAP2 dataset [1]: 4 fold
percent of 80S ribosomes with CtMAP2∆N at the PTE [1]: 70%
Substance: CtMAP2(∆N1-73), autoproteolysis product of C. thermophilum MAP2 without the N-terminal extension (domain or fragment)

percent of purified ribosomes that accommodate MAP2 [2]: 100%
Substance: Human methionine aminopeptidase 2 (HsMAP2) (from UniProt P50579 1-478) (enzyme)

percent of purified ribosomes that accommodate MAP2 [3]: 100%
Substance: Chaetomium thermophilum methionine aminopeptidase 2, full length (CtMAP2) (enzyme)
